From US20160160263

How the values were obtained:
[1] = test system: T1, YGRAAA (SEQ ID NO: 17), uPA selective substrate
T1 sequence: YGRAAA

[2] = test system: SNPYG-Y (SEQ ID NO: 23), MMP9 selective substrate
[3] = test system: TIAH/LH, MMP2 selective substrate
[4] = test system: SNPYK-Y (SEQ ID NO: 21), MMP9 selective substrate
[5] = test system: RS-Q-G-(homoF)-YLY (SEQ ID NO: 71)

Chain of MMP-9 (chain, as listed by the source): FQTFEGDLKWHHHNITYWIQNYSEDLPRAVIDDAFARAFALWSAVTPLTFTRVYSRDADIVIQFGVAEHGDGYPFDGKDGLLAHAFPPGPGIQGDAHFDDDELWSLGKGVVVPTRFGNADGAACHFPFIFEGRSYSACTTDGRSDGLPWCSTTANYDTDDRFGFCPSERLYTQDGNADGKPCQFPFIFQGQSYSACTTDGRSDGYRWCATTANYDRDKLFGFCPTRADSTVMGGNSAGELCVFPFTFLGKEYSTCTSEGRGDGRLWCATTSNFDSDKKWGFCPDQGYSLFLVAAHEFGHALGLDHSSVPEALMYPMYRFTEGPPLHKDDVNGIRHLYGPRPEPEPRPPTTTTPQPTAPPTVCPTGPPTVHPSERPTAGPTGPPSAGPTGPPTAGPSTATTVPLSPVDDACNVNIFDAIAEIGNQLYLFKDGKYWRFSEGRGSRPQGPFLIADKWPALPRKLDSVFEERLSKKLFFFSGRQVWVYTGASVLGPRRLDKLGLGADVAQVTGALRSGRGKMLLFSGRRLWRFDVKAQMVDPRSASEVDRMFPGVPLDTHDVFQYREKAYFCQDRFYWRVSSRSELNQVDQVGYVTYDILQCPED

urokinase plasminogen activator (uPA)
cleavage of ACPP substrate by protease [1]: efficiently cleaved by uPA

MMP-9
cleavage of ACPP substrate by protease (FAM/Cy5 ratiometric RACPP) [2]: MMP9 selective substrates
cleavage of ACPP substrate by protease [3]: selectively cleaved by MMP-2 versus 9 and 14
cleavage of ACPP substrate by protease (FAM/Cy5 ratiometric RACPP) [4]: MMP9 selective substrates

MT2-MMP
cleavage of substrate by protease [5]: Only RS-Q-G-(homoF)-YLY (SEQ ID NO: 71) shows significant cleavage by MT2-MMP
